This note sets out measurements from article PMC10772735, “Characterization of erythroferrone oligomerization and its impact on BMP antagonism” (The Journal of Biological Chemistry, 2023).

To fix the notation:
B1: N-terminally flag-tagged hERFE (residues 44–354), WT erythroferrone [human] / BMP6 [not stated] (parent)
chain 1: PPPGNELPRGPGESRAGPAARPPEPTAERAHSVDPRDAWMLFVRQSDKGVNGKKRSRGKAKKLKFGLPGPPGPPGPQGPPGPIIPPEALLKEFQLLLKGAVRQRERAEPEPCTCGPAGPVAASLAPVSATAGEDDDDVVGDVLALLAAPLAPGPRAPRVEAAFLCRLRRDALVERRALHELGVYYLPDAEGAFRRGPGLNLTSGQYRAPVAGFYALAATLHVALGEPPRRGPPRPRDHLRLLICIQSRCQRNASLEAIMGLESSSELFTISVNGVLYLQMGQWTSVFLDNASGCSLTVRSGSHFSAVLLGV
chain 2: SASSRRRQQSRNRSTQSQDVARVSSASDYNSSELKTACRKHELYVSFQDLGWQDWIIAPKGYAANYCDGECSFPLNAHMNATNHAIVQTLVHLMNPEYVPKPCCAPTKLNAISVLYFDDNSNVILKKYRNMVVRACGCH

The variants in the assay derive from B1. Put plainly: SPR competition (BMP6 + ERFE over Alk3-Fc captured on protein A chip). The conditions noted are these: curve maximum near the ~300 s dotted line, RU is residual BMP6 binding to Alk3-Fc (lower RU = more competition by ERFE), read off a plot.

Consider chain 1 PPPGNELPRGPGESRAGPAARPPEPTAERAHSVDPRDAWMLAVRQSDKGVNGKKRSRGKAKKLKFGLPGPPGPPGPQGPPGPIIPPEALLKEFQLLLKGAVRQRERAEPEPCTCGPAGPVAASLAPVSATAGEDDDDVVGDVLALLAAPLAPGPRAPRVEAAFLCRLRRDALVERRALHELGVYYLPDAEGAFRRGPGLNLTSGQYRAPVAGFYALAATLHVALGEPPRRGPPRPRDHLRLLICIQSRCQRNASLEAIMGLESSSELFTISVNGVLYLQMGQWTSVFLDNASGCSLTVRSGSHFSAVLLGV [chain 1 F42A], for which the response turned out to be 12 RU (with BMP6, 10 nM BMP6 + 80 nM F85A ERFE) and 11 RU (with BMP6, 10 nM BMP6 + 160 nM F85A ERFE).

On to chain 1 PPPGNELPRGPGESRAGPAARPPEPTAERAHSVDPRDAAMLFVRQSDKGVNGKKRSRGKAKKLKFGLPGPPGPPGPQGPPGPIIPPEALLKEFQLLLKGAVRQRERAEPEPCTCGPAGPVAASLAPVSATAGEDDDDVVGDVLALLAAPLAPGPRAPRVEAAFLCRLRRDALVERRALHELGVYYLPDAEGAFRRGPGLNLTSGQYRAPVAGFYALAATLHVALGEPPRRGPPRPRDHLRLLICIQSRCQRNASLEAIMGLESSSELFTISVNGVLYLQMGQWTSVFLDNASGCSLTVRSGSHFSAVLLGV [chain 1 W39A], for which the response came out at 12 RU (with BMP6, 10 nM BMP6 + 80 nM W82A ERFE) and 10 RU (with BMP6, 10 nM BMP6 + 160 nM W82A ERFE).
